What was measured:
[1] = biological target: WDR11-FAM91A1 complex (human) (UniProt Q658Y4); assay: BLI
SEC-MALS = biological target: the molecule itself; assay: SEC-MALS

Chain of WDR11-FAM91A1 complex (human) (Q658Y4 whole entry, one chain of several): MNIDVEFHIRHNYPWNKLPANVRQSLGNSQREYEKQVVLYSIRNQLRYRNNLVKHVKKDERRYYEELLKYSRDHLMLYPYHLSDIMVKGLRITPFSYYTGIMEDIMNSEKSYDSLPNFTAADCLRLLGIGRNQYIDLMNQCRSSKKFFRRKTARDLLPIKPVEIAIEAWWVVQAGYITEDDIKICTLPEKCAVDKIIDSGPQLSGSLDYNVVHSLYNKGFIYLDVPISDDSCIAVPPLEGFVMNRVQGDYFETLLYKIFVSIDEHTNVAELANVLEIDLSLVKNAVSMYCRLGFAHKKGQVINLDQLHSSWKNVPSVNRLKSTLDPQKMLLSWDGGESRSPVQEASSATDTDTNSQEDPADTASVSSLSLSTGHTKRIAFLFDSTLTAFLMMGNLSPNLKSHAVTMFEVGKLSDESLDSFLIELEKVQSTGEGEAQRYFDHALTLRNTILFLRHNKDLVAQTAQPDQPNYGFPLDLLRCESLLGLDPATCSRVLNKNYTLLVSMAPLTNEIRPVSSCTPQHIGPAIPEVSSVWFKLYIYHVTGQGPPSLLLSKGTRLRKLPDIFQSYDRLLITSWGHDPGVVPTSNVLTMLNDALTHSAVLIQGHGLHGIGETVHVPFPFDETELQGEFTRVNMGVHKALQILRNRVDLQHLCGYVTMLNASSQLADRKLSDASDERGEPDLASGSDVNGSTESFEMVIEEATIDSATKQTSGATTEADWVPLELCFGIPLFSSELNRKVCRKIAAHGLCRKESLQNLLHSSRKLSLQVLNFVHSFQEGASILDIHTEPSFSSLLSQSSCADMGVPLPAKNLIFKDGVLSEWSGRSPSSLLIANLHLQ

CI-MPR AC1-WT peptide showed a Kd [1] of 20.8 µM.

B1: WDR11 (natural protein, human)
chain: MLPYTVNFKVSARTLTGALNAHNKAAVDWGWQGLIAYGCHSLVVVIDSITAQTLQVLEKHKADVVKVKWARENYHHNIGSPYCLRLASADVNGKIIVWDVAAGVAQCEIQEHAKPIQDVQWLWNQDASRDLLLAIHPPNYIVLWNADTGTKLWKKSYADNILSFSFDPFDPSHLTLLTSEGIVFISDFSPSKPPSGPGKKVYISSPHSSPAHNKLATATGAKKALNKVKILITQEKPSAEFITLNDCLQLAYLPSKRNHMLLLYPREILILDLEVNQTVGVIAIERTGVPFLQVIPCFQRDGLFCLHENGCITLRVRRSYNNIFTTSNEEPDPDPVQELTYDLRSQCDAIRVTKTVRPFSMVCCPVNENAAALVVSDGRVMIWELKSAVCNRNSRNSSSGVSPLYSPVSFCGIPVGVLQNKLPDLSLDNMIGQSAIAGEEHPRGSILREVHLKFLLTGLLSGLPAPQFAIRMCPPLTTKNIKMYQPLLAVGTSNGSVLVYHLTSGLLHKELSIHSCEVKGIEWTSLTSFLSFATSTPNNMGLVRNELQLVDLPTGRSIAFRGERGNDESAIEMIKVSHLKQYLAVVFRDKPLELWDVRTCTLLREMSKNFPTITALEWSPSHNLKSLRKKQLATREAMARQTVVSDTELSIVESSVISLLQEAESKSELSQNISAREHFVFTDIDGQVYHLTVEGNSVKDSARIPPDGSMGSITCIAWKGDTLVLGDMDGNLNFWDLKGRVSRGIPTHRSWVRKIRFAPGKGNQKLIAMYNDGAEVWDTKEVQMVSSLRSGRNVTFRILDVDWCTSDKVILASDDGCIRVLEMSMKSACFRMDEQELTEPVWCPYLLVPRASLALKAFLLHQPWNGQYSLDISHVDYPENEEIKNLLQEQLNSLSNDIKKLLLDPEFTLLQRCLLVSRLYGDESELHFWTVAAHYLHSLSQEKSASTTAPKEAAPRDKLSNPLDICYDVLCENAYFQKFQLERVNLQEVKRSTYDHTRKCTDQLLLLGQTDRAVQLLLETSADNQHYYCDSLKACLVTTVTSSGPSQSTIKLVATNMIANGKLAEGVQLLCLIDKAADACRYLQTYGEWNRAAWLAKVRLNPEECADVLRRWVDHLCSPQVNQKSKALLVLLSLGCFFSVAETLHSMRYFDRAALFVEACLKYGAFEVTEDTEKLITAIYADYARSLKNLGFKQGAVLFASKAGAAGKDLLNELESPKEEPIEE
For B1, the “stoichiometry N” value (SEC-MALS) was 2.

— PMC11316641 (Cell, 2024)
